Laboratory results from article PMC9814790.
Where no end group is shown, it is not given here. Me3 = trimethyl (trimethylated lysine, Kme3)

Assays:
Assay in all cases: ITC; H3K4me3 peptide (380 uM) titrated to KDM5A PHD3 fingers (28 uM); for AUX WT-KDM5A 190 uM peptide and 21 uM protein; 20 mM TRIS-HCl pH 7.5, 50 mM NaCl, 1 mM DTT; 19 injections; one set of sites model; 7-9 repeats (AUX WT in replicate)
[1] = target: wild-type KDM5A PHD3 finger expressed in the auxotrophic E. coli Castellani and Chalmers strain (Homo sapiens) (UniProt P29375)
[2] = target: wild-type KDM5A PHD3 finger expressed in E. coli Rosetta BL21 (DE3)pLysS (Homo sapiens) (UniProt P29375)
[3] = target: KDM5A PHD3 finger with 5-fluorotryptophan at Trp18 and Trp28 (Homo sapiens) (UniProt P29375)
[4] = target: KDM5A PHD3 finger with 5,6-difluorotryptophan at Trp18 and Trp28 (Homo sapiens) (UniProt P29375)
[5] = target: KDM5A PHD3 finger with 6-fluorotryptophan at Trp18 and Trp28 (Homo sapiens) (UniProt P29375)

Binder: ARTK(Me3)QTARKS [H3K4me3 histone peptide (ARTKme3QTARKS)]
- Kd [1]: 48 nM
- dH [1]: -11.9 kcal/mol
- Kd [2]: 54 nM
- dH [2]: -11.6 kcal/mol
- Kd [3]: 49 nM
- dH [3]: -10.9 kcal/mol
- Kd [4]: 70 nM
- dH [4]: -11.7 kcal/mol
- Kd [5]: 57 nM
- dH [5]: -12.1 kcal/mol
